Where a chain is given by its changes, count along the chain named. Read-outs that look alike come from different tables or passages of the source.
Tests used:
human IL-13 wild type [1] = molecular target: T1, human IL-13 wild type (human, UniProt P35225 35-146); assay: SPR (Biacore)
T1 construct: also called h IL-13; h IL-13 wt
Experimental: (§1) The BIACORE assay (Biacore, Inc, Piscataway, N.J.) determines the affinity of antibodies with kinetic measurements of on-, off-rate constants. […] All chemicals were obtained from Biacore® AB (Uppsala, Sweden) or otherwise from a different source as described in the text. Approximately 5000 RU of goat anti-mouse IgG, (Fcγ), fragment specific polyclonal antibody (Pierce Biotechnology Inc, Rockford, Ill.) diluted in 10 mM sodium acetate (pH 4.5) was directly immobilized across a CM5 research grade biosensor chip using a standard amine coupling kit according to manufacturer's instructions and procedures at 25 μg/ml. Unreacted moieties on the biosensor surface were blocked with ethanolamine. Modified carboxymethyl dextran surface in flowcell 2 and 4 was used as a reaction surface. Unmodified carboxymethyl dextran without goat anti-mouse IgG in flow cell 1 and 3 was used as the reference surface. For kinetic analysis, rate equations derived from the 1:1 Langmuir binding model were fitted simultaneously to association and dissociation phases of all eight injections (using global fit analysis) with the use of Biaevaluation 4.0.1 software. Purified antibodies were diluted in HEPES-buffered saline for capture across goat anti-mouse IgG specific reaction surfaces. Mouse antibodies to be captured as a ligand (25 μg/ml) were injected over reaction matrices at a flow rate of 5 μl/min. The association and dissociation rate constants, kₒₙ (unit M⁻¹s⁻¹) and koff (unit s⁻¹) were determined under a continuous flow rate of 25 μl/min Rate constants were derived by making kinetic binding measurements at ten different antigen concentrations ranging from 10-200 nM. […] Binding is recorded as a function of time and kinetic rate constants are calculated.

cynomolgus IL-13 [2] = molecular target: T2, cynomolgus IL-13 (cynomolgus, UniProt Q0PW92 21-132); assay: SPR (Biacore)
T2 construct: also called cyno IL-13; wild type cyno IL-13
T2 sequence (Q0PW92 entry or part of it): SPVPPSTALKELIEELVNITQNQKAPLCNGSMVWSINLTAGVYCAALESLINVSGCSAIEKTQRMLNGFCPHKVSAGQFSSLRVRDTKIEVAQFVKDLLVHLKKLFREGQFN
Experimental: as §1

rhesus IL-13 [3] = molecular target: T3, rhesus IL-13 (rhesus, UniProt Q864V6 21-132, limits assumed); assay: SPR (Biacore)
T3 sequence (Q864V6 21-132 limits assumed): as the sequence (Q0PW92 entry or part of it) above, with P5R, Q110R counted along it
Experimental: as §1

human IL-13 wild type [4] = molecular target: T1, human IL-13 wild type; assay: cell-based or functional assay
cynomolgus IL-13 [5] = molecular target: T2, cynomolgus IL-13; assay: cell-based or functional assay
rhesus IL-13 [6] = molecular target: T3, rhesus IL-13; assay: cell-based or functional assay
mouse IL-13 [7] = molecular target: T4, mouse IL-13 (mouse, UniProt P20109 26-131, limits assumed); assay: cell-based or functional assay
T4 sequence (looked up): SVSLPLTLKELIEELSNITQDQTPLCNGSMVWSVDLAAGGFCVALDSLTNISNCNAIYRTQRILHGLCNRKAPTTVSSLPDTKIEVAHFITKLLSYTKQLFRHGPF

mouse IL-13 [8] = molecular target: T4, mouse IL-13; assay: BIACORE against recombinant mouse IL-13
human IL-13 wild type [9] = molecular target: T1, human IL-13 wild type; assay: cell-based or functional assay; remark: listed apart in the source
human IL-13 wild type [10] = molecular target: T1, human IL-13 wild type; assay: cell-based or functional assay; remark: listed apart in the source
[11] = molecular target: T5, human IL-13 variant (R130Q) (human, UniProt P35225 35-146); assay: cell-based or functional assay
T5 sequence (P35225 35-146 limits assumed, stated change not applied): as the sequence (Q0PW92 entry or part of it) above, with S1G, K10R, V42M, N67S, R83H, V100L counted along it

human IL-13 wild type [12] = molecular target: T1, human IL-13 wild type; assay: cell-based or functional assay; remark: listed apart in the source
[13] = molecular target: T5, human IL-13 variant (R130Q); assay: cell-based or functional assay; remark: listed apart in the source
cynomolgus IL-13 [14] = molecular target: T2, cynomolgus IL-13; assay: cell-based or functional assay; remark: listed apart in the source
[15] = molecular target: T5, human IL-13 variant (R130Q); assay: not stated in the sentence (Biacore elsewhere)
cynomolgus IL-13 [16] = molecular target: T2, cynomolgus IL-13; assay: not stated in the sentence (Biacore elsewhere)
[17] = molecular target: T5, human IL-13 variant (R130Q); assay: SPR (Biacore), mAb captured, IL-13 as analyte
Experimental: as §1

mouse IL-13 [18] = molecular target: T4, mouse IL-13; assay: indirect ELISA, captured mAb, biotinylated mouse IL-13
Experimental: Murine anti-human IL-13 mAbs were prepared at various concentrations ranging from 0.1 to 100 ng/ml in PBS containing 0.1% BSA; 50 ul of each antibody dilution was added to the coated ELISA plate and incubated for 1 hour at room temperature. Wells were washed 3 times with PBS containing 0.05% Tween-20. […] Wells were washed 3 times with PBS containing 0.05% Tween-20. Streptavidin HRP (Pierce #21126, Rockland, Ill.) was diluted 1:20000 in PBS containing 0.1% BSA; […] was added and the plates incubated for 1 hour at room temperature. Plates were washed 3 times with PBS containing 0.05% Tween-20. Fifty microliters of TMB solution (Sigma # T0440, St. Louis, Mo.) was added to each well and incubated for 10 minutes at room temperature. The reaction was stopped by addition of 1N sulphuric acid. Plates were read spectrophotmetrically at a wavelength of 450 nm.

human IL-13 wild type [19] = molecular target: T1, human IL-13 wild type; assay: SPR (Biacore), mAb captured, IL-13 as analyte; native recombinant human wild-type IL-13, Biacore
Experimental: as §1

human IL-13 wild type [20] = molecular target: T1, human IL-13 wild type; assay: blocking of IL-13 binding to IL-13Rα2: cell surface RBA (125I-IL-13, transfected COS cells) and receptor binding ELISA (IL-13Rα2/Fc); native IL-13 in solution; blocking of binding to IL-13Rα2, cell surface RBA and RB ELISA; lower end of range
Experimental: (§2) The plates were washed again 5 times with 300 ul 0.1% PBST, followed by addition of TMB substrate reagent (100 ul/well, Pharmingen); developed for 5 min, and stopped by adding 50 ul of 2M H2SO4 (VWR). ODs at 450 nm were determined by spectrophotometry.
(§3) Additionally, the receptor blocking properties of the mAbs were also assessed by receptor binding assay using IL-13Rα2-transfected COS cells. Recombinant human IL-13 was labeled with ¹²⁵I (Amersham, Arlington Heights, Ill.), using IODO-GEN reagent (Pierce, Rockford, Ill.) as previously described (Obiri N I et al., (1995) J Biol Chem. 270:8797-8804). […] For binding experiments, COS cells were transiently transfected with human IL-13Rα2 by Lipofectamine 2000 (Invitrogen), and incubated for 48 hr. Transfected COS cells (5×10^5 cells in 100 μL binding buffer: RPMI 1640 containing 0.2% human serum albumin and 10 mmol HEPES) were incubated with 1.0 nM ¹²⁵I-IL-13 with or without 1 uM unlabeled IL-13 at 4° C. for 2 hours. Cell-bound ¹²⁵I-IL-13 was separated from unbound ¹²⁵I-IL-13 by centrifugation through a phthalate oil gradient, and radioactivity was determined with a gamma counter (Wallac, Gaithersburg, Md.).

human IL-13 wild type [21] = molecular target: T1, human IL-13 wild type; assay: blocking of IL-13 binding to IL-13Rα2: cell surface RBA (125I-IL-13, transfected COS cells) and receptor binding ELISA (IL-13Rα2/Fc); native IL-13 in solution; blocking of binding to IL-13Rα2, cell surface RBA and RB ELISA; upper end of range
Experimental: as §2, §3

T1 sequence (P35225 other isoform, or with tags, fused parts or gaps limits assumed): as the sequence (Q0PW92 entry or part of it) above, with S1G, K10R, V42M, N67S, R83H, V100L, Q110R counted along it

B1: 13C5.5L2EL3F (antibody, V domains shown)
VH: EVTLRESGPGLVKPTQTLTLTCTLYGFSLSTSDMGVDWIRQPPGKGLEWLAHIWWDDVKRYNPALKSRLTISKDTSKNQVVLKLTSVDPVDTATYYCARTVSSGYIYYAMDYWGQGTLVTVSS
VL: DIQMTQSPSSLSASVGDRVTISCRASQDIRNYLNWYQQKPGKAPKLLIFYTSMKPRGVPSRFSGSGSGTDYTLTISSLQPEDIATYYCQQGLTPPLTFGGGTKVEIK
notes: constant regions not restated for this variant
Human IL-13 wild type [1]
  Kd: 0.25 nM
Cynomolgus IL-13 [2]
  Kd: 0.32 nM
Rhesus IL-13 [3]
  Kd: 0.13 nM
Human IL-13 wild type [4]
  Potency (IC50), A-549 bioassay: 0.12 nM
Cynomolgus IL-13 [5]
  Potency (IC50), A-549 bioassay: 0.48 nM
Rhesus IL-13 [6]
  Potency (IC50), A-549 bioassay: 0.26 nM

B2: 13C5.5L2E (antibody, V domains shown)
VH: B1 VH
VL: B1 VL with L92N, P94L
notes: as for B1
Human IL-13 wild type [1]
  Kd: 0.12 nM
Cynomolgus IL-13 [2]
  Kd: 0.52 nM
Rhesus IL-13 [3]
  Kd: 0.29 nM
Human IL-13 wild type [4]
  Potency (IC50), A-549 bioassay: 0.18 nM
Cynomolgus IL-13 [5]
  Potency (IC50), A-549 bioassay: 1.2 nM
Rhesus IL-13 [6]
  Potency (IC50), A-549 bioassay: 0.4 nM

B3: 13C5.5L3F (antibody, V domains shown)
VH: B1 VH
VL: B1 VL with M53K, K54L, P55H, R56S
notes: The heavy chain row is printed 'VH 13C5.5L2F'
Human IL-13 wild type [1]
  Kd: 0.24 nM
Cynomolgus IL-13 [2]
  Kd: 0.19 nM
Rhesus IL-13 [3]
  Kd: 0.11 nM
Human IL-13 wild type [4]
  Potency (IC50), A-549 bioassay: 0.15 nM
Cynomolgus IL-13 [5]
  Potency (IC50), A-549 bioassay: 0.46 nM
Rhesus IL-13 [6]
  Potency (IC50), A-549 bioassay: 0.14 nM

B4: 51D9 (antibody, V domains shown)
VH: QIQLVQSGPELKKPGESVKISCKASGYTFTDYAMHWVKQAPGKGLKWMAWINTYTGKPTYADDFKGRFVFSLEASASTATLQISNLKNEDTATYFCARAGRTEGTHYYAMDAWGQGTSVTVSS
VL: DIVLTQSPVLAVSLGQRATISCRASQSVSISSSDLMHWYQQRPGHQPKLLIYRTSNLVSGIPARFSGSGSGTDFTLTIDPVQADDIAAYYCQQGRESPWTFGGGTKLELKR
Mouse IL-13 [7]
  IC50, A-549 bioassay against recombinant mouse IL-13: 0.343 nM
Mouse IL-13 [8]
  Kd: 0.145 nM

B5: 5G1-Chim (antibody, V domains shown)
VH: QVQLQQSGAELARPGTSVKLSCKASGYTFTTYGVSWVKQRTGQGLEWIGEIYPGNYNTYYNEKFRGKATLTADKSSSTAYMQLSSLTSEDSAVYFCSRWRTSYFSDYGYFDYWGQGTTLTVSS
VL: DVVMTQTPLSLPVSLGDQASISCRSSQSLVHSHGNTYLHWYLQKPGQSPKLLIYTVSNRFSGVPDRFSGSGSGTDFTLKISRVEAEDLGVYFCSQSTHVPYTFGGGTKLEIKR
notes: also called chimeric 5G1
Human IL-13 wild type [1]
  Kd: 0.0417 nM
  koff: 3.82e-05 s⁻¹
  kon: 915000 M⁻¹ s⁻¹
Human IL-13 wild type [9]
  Average IC50, IL-13-induced TARC production by A-549 cells: 0.041 nM
Human IL-13 wild type [10]
  Potency (IC50), A-549 bioassay: 0.0769 nM
[11]
  Potency (IC50), A-549 bioassay: 0.0692 nM

B6: 13C5 (antibody, V domains shown)
VH: QVTLKESGPGILQPSQTLSLTCSFSGFSLSTSDMGVDWIRQPSGKGLEWLAHIWWDDVKRYNPALKSRLTISKDTSSSQVFLMLASVDTADTATYYCARTVSSGYIYYAMDYWGQGTSVTVSS
VL: DIQMTQTASSLSASLGDRVTISCRASQDIRNYLNWYQRKPDGTVKLLIFYTSKLHSGVPSRFSGSGSGTDYSLTIRNLEQEDIATYFCQQGNTLPLTFGGGTKLEIKR
notes: also called murine 13C5
Human IL-13 wild type [12]
  Average IC50, IL-13-induced TARC production by A-549 cells: 0.19 nM
[13]
  Average IC50, IL-13-induced TARC production by A-549 cells: 0.17 nM
Cynomolgus IL-13 [14]
  Average IC50, IL-13-induced TARC production by A-549 cells: 5 nM
[15]
  Kd: 0.05 nM
Cynomolgus IL-13 [16]
  Kd: 1.8 nM
[17]
  Kd: 0.0759 nM
  koff: 4.35e-05 s⁻¹
  kon: 574000 M⁻¹ s⁻¹
Mouse IL-13 [18]
  binding result: no binding (tested: 0.1 to 100 ng/ml)
Human IL-13 wild type [19]
  Kd: 0.0745 nM
  koff: 9.31e-05 s⁻¹
  kon: 1.25e+06 M⁻¹ s⁻¹
Human IL-13 wild type [20]
  IC50: 1 to 3 nM
Human IL-13 wild type [21]
  IC50: 1 to 3 nM

B7: 13C5-Chim (antibody, human IgG1, V domains shown)
VH: B6 VH
VL: B6 VL
notes: also called chimeric 13C5
Human IL-13 wild type [1]
  Kd: 0.0568 nM
  koff: 9.65e-05 s⁻¹
  kon: 1.7e+06 M⁻¹ s⁻¹
Human IL-13 wild type [9]
  Average IC50, IL-13-induced TARC production by A-549 cells: 0.191 nM
Human IL-13 wild type [10]
  Potency (IC50), A-549 bioassay: 0.107 nM
[11]
  Potency (IC50), A-549 bioassay: 0.037 nM

B8: 48D3 (antibody, V domains shown)
VH: EVQLVESGGDLVQPGRSLKLSCAASGFTFSDYYMAWVRQAPTKGLEWVASISNDGISTYYRDSVKGRFTISREKAKSSLYLQMDSLRSEDTATYYCTTWNWEFGFFDYWGQGVMVTVSA
VL: DIVLTQSPALAVSLGQRATISCRASQSVTISRYNRMHWYQQRPGQQPKLLIYRSSYLASGIPARFSGSGSGTDFTLTIYPVQADDIATYYCQQNRESPWTFGGGTKLELNR
Mouse IL-13 [7]
  IC50, A-549 bioassay against recombinant mouse IL-13: 0.0491 nM
Mouse IL-13 [8]
  Kd: 0.105 nM

B9: 9C11-Chim (antibody, human IgG1, V domains shown)
VH: QVRLQQPGAELVRPGASVKLSCKASGYTFTSSWIHWVNQRPGQGLEWIGMIHPSDSETRLNQKFKDKATLTVDKSSSTAYMQLSSPTSEDSAVYYCASTATDFDYWGQGTTLTVSS
VL: DVVLTQTPLSLPVNIGDQASISCRSTQTLLNSDGFTYLDWYLQKPGQSPQLLIYLVSNRFSGVPDRFSGSGSGTDFTLKISRVEAEDLGVYYCFQNNYLPLTFGAGTKLELKR
Human IL-13 wild type [9]
  Average IC50, IL-13-induced TARC production by A-549 cells: 0.123 nM
